Source: patent US20110035817A1 (YEDA RESEARCH AND DEVELOPMENT, published 2011)

Target: T1, myc-NIK (wild-type NIK fused N-terminally to a six myc tag) (UniProt Q99558 1-947)
T1 construct: pCS3MTNIK expression vector, co-transfected into HEK-293T cells; also called NF-κB-inducing kinase; MAP3K14; not shown: six myc tag at the N-terminus
Experiment: co-immunoprecipitation from HEK-293T lysate: NIK immunoprecipitated with anti-NIK antibody, co-precipitated SIVA detected by Western blot
Procedure: FLAG-SIVA2 or FLAG-SIVA3 expression vectors were co-transfected with NIK expression vector into HEK-293T cells. 24 h later, cells were lysed, NIK was immunoprecipitated with anti-NIK antibody and co-precipitated SIVA was monitored by western Blotting. WB=Western Blot, TLC=Total cell lysate, IP=immunoprecipitation.
Next, it was explored whether SIVA3 binds NIK. FLAG-SIVA2 (8 μg) or FLAG-SIVA3 (8 μg) were co-transfected with myc-NIK (7 μg) into HEK-293T cells (1.5×10⁶ seeded in 90 mm plate, transfected using calcium phosphate method). 24 h later, cells were lysed, NIK was immunoprecipitated with anti-NIK antibody and co-precipitated SIVA was detected by western Blotting.

T1 sequence (Q99558 whole entry, the tested form may be a part): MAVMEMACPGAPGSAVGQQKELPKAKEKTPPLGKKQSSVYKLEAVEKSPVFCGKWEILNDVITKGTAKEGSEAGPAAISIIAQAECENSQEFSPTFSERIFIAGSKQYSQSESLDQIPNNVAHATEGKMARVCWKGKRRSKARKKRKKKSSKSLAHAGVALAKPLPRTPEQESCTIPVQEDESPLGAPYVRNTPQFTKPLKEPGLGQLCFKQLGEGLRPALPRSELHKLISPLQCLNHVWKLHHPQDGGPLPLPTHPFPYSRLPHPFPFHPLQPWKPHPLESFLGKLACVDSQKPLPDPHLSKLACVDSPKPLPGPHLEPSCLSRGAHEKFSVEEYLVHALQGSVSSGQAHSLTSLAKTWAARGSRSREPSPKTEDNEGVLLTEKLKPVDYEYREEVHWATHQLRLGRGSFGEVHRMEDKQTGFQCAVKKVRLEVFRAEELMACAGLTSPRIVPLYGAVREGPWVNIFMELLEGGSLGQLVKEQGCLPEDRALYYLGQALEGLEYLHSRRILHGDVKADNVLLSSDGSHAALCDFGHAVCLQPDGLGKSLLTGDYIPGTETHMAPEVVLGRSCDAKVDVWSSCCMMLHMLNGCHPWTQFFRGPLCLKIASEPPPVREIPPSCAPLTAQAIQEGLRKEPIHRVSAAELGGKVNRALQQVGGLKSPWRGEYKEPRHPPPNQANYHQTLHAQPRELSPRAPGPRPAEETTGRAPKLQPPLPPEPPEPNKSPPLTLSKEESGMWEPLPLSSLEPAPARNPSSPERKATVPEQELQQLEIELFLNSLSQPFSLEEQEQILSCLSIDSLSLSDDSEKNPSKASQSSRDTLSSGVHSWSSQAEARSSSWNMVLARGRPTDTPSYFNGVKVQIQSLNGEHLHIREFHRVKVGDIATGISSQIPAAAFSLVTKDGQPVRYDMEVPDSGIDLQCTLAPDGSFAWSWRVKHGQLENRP

- binding result: no binding
B1: FLAG-SIVA3 (other)
chain: MPKRSCPFADVAPLQLKVRVSQRELSRGVCAERYSQEVFAAVTCTRKCCAPAVPCSRPEAGSSRLPSPGATPCMAAFPGRALGVHTELWGRREGCLLHVLFCILMTE
notes: Expressed from pcDNA3 in HEK-293T cells and tested in lysate by co-immunoprecipitation; not shown: FLAG tag
